Assay results from PMC9035363 (Cell Reports, 2022).
Like-named read-outs stand apart in the source and are kept apart here.

What was measured:
[1] = target: T1, SARS-CoV-2 S protein, wild type, on CHO cells (SARS-CoV-2, Wuhan (GenBank MN908947.3), UniProt P0DTC2); assay: cell-based or functional assay
[2] = target: T1, SARS-CoV-2 S protein, wild type, on CHO …; assay: cell-based or functional assay; remark: listed apart in the source
[3] = target: SARS-CoV-2 RBD (monomeric) (SARS-CoV-2, Wuhan reference …, UniProt P0DTC2); assay: SPR
[4] = target: T2, RBD-Fc, reference sequence (SARS-CoV-2, Wuhan reference …, UniProt P0DTC2); assay: SPR
[5] = target: T2, RBD-Fc, reference sequence; assay: SPR; remark: listed apart in the source

Row | Binder | authentic SARS-CoV-2/MT020880.1 neutralisation, IFA, IC50 (S-ACE2) [1] | PRNT, Italy-INMI1 isolate, combination study, LY-CoV1404 alone, IC50 [2] | PRNT, authentic Italy-INMI1 isolate, IC50 [2] | PRNT, authentic WA isolate, IC50 [2] | Kd [3] | Kd [4] | Kd [5]
1 | LY-CoV1404 (bebtelovimab), full-length human IgG1 mAb (antibody, V domains shown) VH: QITLKESGPTLVKPTQTLTLTCTFSGFSLSISGVGVGWLRQPPGKALEWLALIYWDDDKRYSPSLKSRLTISKDTSKNQVVLKMTNIDPVDTATYYCAHHSISTIFDHWGQGTLVTVSS VL: QSALTQPASVSGSPGQSITISCTATSSDVGDYNYVSWYQQHPGKAPKLMIFEVSDRPSGISNRFSGSKSGNTASLTISGLQAEDEADYYCSSYTTSSAVFGGGTKLTVL | 0.009 to 0.0221 µg/mL | 0.015 µg/mL | 0.01 µg/mL | 0.002 µg/mL | 1.58 nM |  | 
2 | LY-CoV1404 Fab (papain digestion) (Fab, V domains shown) VH: QITLKESGPTLVKPTQTLTLTCTFSGFSLSISGVGVGWLRQPPGKALEWLALIYWDDDKRYSPSLKSRLTISKDTSKNQVVLKMTNIDPVDTATYYCAHHSISTIFDHWGQGTLVTVSS VL: QSALTQPASVSGSPGQSITISCTATSSDVGDYNYVSWYQQHPGKAPKLMIFEVSDRPSGISNRFSGSKSGNTASLTISGLQAEDEADYYCSSYTTSSAVFGGGTKLTVL |  |  |  |  |  | 3.71 nM | 4.01 nM
